Drawing on the Immune Epitope Database (IEDB), this text covers Kd and IC50 for eight sequences.

One may read the Kd as the free concentration of one partner at which half of the binding sites on the other are occupied at equilibrium, for simple one-to-one binding. One may read the IC50 as the concentration that gives 50% inhibition. The low end stands for higher potency, the high end for lower potency.

In test [1] the target is HLA-B*15:17. The test can be described thus: IEDB peptide-MHC binding, purified MHC/competitive/fluorescence; filed as Kd, often an IC50 or EC50 that approximates it; ≥ and ≤ were set here for values at or beyond the usual limits of such assays. The settings on record: source organism: Orthohantavirus andesense.
The target of test [2] is HLA-B*51:01. The description is as above.
Test [3] deals with HLA-A*02:01. Described as above.
In test [4] the target is HLA-B*46:01. The description is as above.
The target of test [5] is HLA-A*69:01. Described as above.
Test [6] deals with HLA-A*24:03. The test is described as above.
The target in test [7] is HLA-B*57:01. The description is as above.
For test [8], the target named is HLA-A*26:01. Described as above.
Test [9] addresses HLA-B*39:01. The test is described as above.
Test [10] deals with HLA-B*27:03. Described as above.
Test [11] concerns the target HLA-B*18:01. The description is as above.
In test [12] the target is HLA-A*02:11. The test can be described thus: IEDB peptide-MHC binding, purified MHC/direct/fluorescence; filed as Kd, often an IC50 or EC50 that approximates it; ≥ and ≤ were set here for values at or beyond the usual limits of such assays. Conditions: source organism: Orthohantavirus andesense.
Test [13] concerns the target HLA-A*02:19. Described as above. The settings on record: source organism: Orthohantavirus andesense.
The target in test [14] is HLA-A*02:03. The test is described as above. The settings on record: source organism: Orthohantavirus andesense.
In test [15] the target is HLA-A*02:12. The test is described as above. The settings on record: source organism: Orthohantavirus andesense.
For test [16], the target named is HLA-A*02:16. The test is described as above. The settings on record: source organism: Orthohantavirus andesense.
The target in test [17] is HLA-A*68:02. Described as above. The settings on record: source organism: Orthohantavirus andesense.
The target in test [18] is HLA-A*03:01. Described as above. The settings on record: source organism: Orthohantavirus andesense.
Test [19] addresses HLA-A*02:01. The test can be described thus: IEDB peptide-MHC binding, purified MHC/competitive/fluorescence; ≥ and ≤ were set here for values at or beyond the usual limits of such assays. Conditions: source organism: Zaire ebolavirus.
For test [20], the target named is HLA-B*08:01. Described as above. The settings on record: source organism: Zaire ebolavirus.
For test [21], the target named is HLA-A*24:02. Described as above. Conditions: source organism: Zaire ebolavirus.
Test [22] addresses HLA-B*07:02. Described as above. The settings on record: source organism: Zaire ebolavirus.
The target of test [23] is HLA-B*15:01. The description is as above. The settings on record: source organism: Zaire ebolavirus.
For test [24], the target named is HLA-A*02:06. The test can be described thus: IEDB peptide-MHC binding, purified MHC/competitive/fluorescence; filed as Kd, often an IC50 or EC50 that approximates it; ≥ and ≤ were set here for values at or beyond the usual limits of such assays. Conditions: source organism: Human immunodeficiency virus 1.
Test [25] has as its target HLA-A*02:03. The test is described as above.
Test [26] addresses HLA-A*68:02. The description is as above.
The target of test [27] is HLA-A*30:01. Described as above. Conditions: source organism: Human immunodeficiency virus 1.
Test [28] deals with HLA-A*31:01. Described as above. Conditions: source organism: Human immunodeficiency virus 1.
The target of test [29] is HLA-A*02:19. Described as above.
In test [30] the target is HLA-A*02:12. Described as above.
In test [31] the target is HLA-A*29:02. The description is as above.
Test [32] addresses HLA-A*03:01. The test is described as above.
For test [33], the target named is HLA-B*15:01. Described as above. The settings on record: source organism: Entamoeba dispar SAW760.
Test [34] deals with HLA-A*02:16. Described as above. The settings on record: source organism: Burkholderia pseudomallei K96243.
Setting [35] is: source organism: Orthohantavirus andesense.
[36] abbreviates: source organism: Human immunodeficiency virus 1.
Setting [37] is: source organism: Entamoeba dispar SAW760.
Where [38] appears, read: source organism: Cryptosporidium parvum Iowa II.

Consider VWKQLFPEL, for which the Kd in test [1] was at least 20 µM; in test [2] (setting [35]), at least 20 µM; in [3] (setting [35]) it was at least 20 µM; in test [4] (setting [35]) it was at least 20 µM; in [5] (setting [35]), at least 20 µM; in test [6] (setting [35]), 0.0105 µM. The Kd in test [7] (setting [35]), in test [8] (setting [35]), in test [9] (setting [35]), in [10] (setting [35]), in [11] (setting [35]) and in test [12] was at least 20 µM each time. Also, the Kd in test [13], in test [14], in test [15], in test [16], in test [17] and in test [18] was at least 20 µM in each case.
As to FSILNRKAI, the half-inhibitory concentration (IC50) in test [19] is at least 235 µM; in [20], 21.6 µM; in [21] it was 5.56 µM; in test [22], 46.5 µM; in test [23] it was 35.8 µM.
With EKLKSLFNTI, the equilibrium dissociation constant (Kd) was 0.00183 µM in test [24]; 0.0368 µM in test [25] (setting [36]); at least 20 µM in test [3] (setting [36]); 0.641 µM in test [9] (setting [36]); at least 20 µM in [26] (setting [36]); 0.0207 µM in [27]. Further, the Kd in test [28] is at least 20 µM.
Regarding LVGNTLTTC, the Kd in test [29] (setting [37]) was at least 20 µM; in test [25] (setting [37]), at least 20 µM; in [2] (setting [37]), at least 20 µM; in [3] (setting [37]), at least 20 µM; in test [4] (setting [37]) it was at least 20 µM; in test [30] (setting [37]), 4.55 µM. Further, the dissociation constant (Kd) in test [6] (setting [37]), in [7] (setting [37]), in test [8] (setting [37]), in [9] (setting [37]), in test [10] (setting [37]) and in test [31] (setting [37]) was at least 20 µM each time. The Kd in test [11] (setting [37]), in test [32] (setting [37]) and in test [33] was at least 20 µM in each case.
Regarding ELAKPWPGA, the results for the Kd in test [3] (source organism: Burkholderia pseudomallei K96243) and in [34] were 1.21 µM and at least 20 µM, respectively.
In the case of EELRSLFNTI, the Kd was 1.14 µM in test [24], at least 20 µM in test [25] (setting [36]) and at least 20 µM in test [26] (setting [36]).
On to EELRSLFNTV, for which the Kd in test [24] came to 0.302 µM; in [5] (setting [36]), 0.301 µM; in test [26] (setting [36]) it was 0.325 µM.
As for KIFKVTGEF, the Kd in test [29] (setting [38]), in [25] (setting [38]), in test [2] (setting [38]), in test [3] (setting [38]), in test [30] (setting [38]) and in [5] (setting [38]) was at least 20 µM each time. The equilibrium dissociation constant (Kd) in test [8] (setting [38]) was at least 20 µM; in [9] (setting [38]), at least 20 µM; in test [10] (setting [38]), at least 20 µM; in test [26] (setting [38]), at least 20 µM; in test [31] (setting [38]), 0.735 µM; in test [11] (setting [38]), at least 20 µM. The same sequence returned a Kd in test [32] (setting [38]) of at least 20 µM.
